# According to PMC9844003, “A pH-dependent anti-CD47 antibody that selectively targets solid tumors and improves therapeutic efficacy and safety” (Journal of Hematology & Oncology, 2023):
# B1: BC27 (phage-scFv form) (scFv, V domains shown)
# VH: QVQLVQSGAEVKKPGASVKVSCKASGYTFTSYGISWVRQAPGQGLEWMGWISAYNGNTNYAQKLQGRVTMTTDTSTSTAYMELRSLRSDDTAVYYCARGKVYFDYWGQGTLVTVSS
# VL: EIVLTQSPATLSLSPGERATLSCRASQSLSRNHLAWYQQKPGQPPRLLIHWASTRESGVPDRFSGSGSGTDFTLTISSLQAEDVAVYYCQQYYTASWTFGQGTKVEIK
# notes: VH of BC27: as the variable region of the heavy chain of m6 (PDB 7WN8) except in HCDR3; scFv linker of the library; VL of BC27: as the variable region of the light chain of m6 (PDB 7WN8) except in LCDR3
# B2: BC31M4 (phage-scFv form), wild type (scFv, V domains shown)
# VH: QVQLVQSGAEVKKPGASVKVSCKASGYTFTSYGISWVRQAPGQGLEWMGWISAYNGNTNYAQKLQGRVTMTTDTSTSTAYMELRSLRSDDTAVYYCARGAVYFDYWGQGTLVTVSS
# VL: EIVLTQSPATLSLSPGERATLSCRASQSLSRNHLAWYQQKPGQPPRLLIHWASTRESGVPDRFSGSGSGTDFTLTISSLQAEDVAVYYCQQHTQNTWTFGQGTKVEIK
# notes: VH of BC31M4: as the variable region of the heavy chain of m6 (PDB 7WN8) with A instead of T at residue 108 of HCDR3 (IMGT numbering); scFv linker; VL of BC31M4: as the variable region of the light chain of m6 (PDB 7WN8); also called wild-type BC31M4
# B3: BC31M4 (phage-scFv form) with VL H38 replaced by arginine (scFv, V domains shown)
# VH: QVQLVQSGAEVKKPGASVKVSCKASGYTFTSYGISWVRQAPGQGLEWMGWISAYNGNTNYAQKLQGRVTMTTDTSTSTAYMELRSLRSDDTAVYYCARGAVYFDYWGQGTLVTVSS
# VL: EIVLTQSPATLSLSPGERATLSCRASQSLSRNRLAWYQQKPGQPPRLLIHWASTRESGVPDRFSGSGSGTDFTLTISSLQAEDVAVYYCQQHTQNTWTFGQGTKVEIK
# notes: VH of BC31M4: as the variable region of the heavy chain of m6 (PDB 7WN8) with A instead of T at residue 108 of HCDR3 (IMGT numbering); scFv linker; VL of BC31M4 (as the variable region of the light chain of m6, PDB 7WN8) with H38 (LCDR1, IMGT numbering) changed
# B4: BC31M4 (phage-scFv form) with VL H38 replaced by lysine (scFv, V domains shown)
# VH: QVQLVQSGAEVKKPGASVKVSCKASGYTFTSYGISWVRQAPGQGLEWMGWISAYNGNTNYAQKLQGRVTMTTDTSTSTAYMELRSLRSDDTAVYYCARGAVYFDYWGQGTLVTVSS
# VL: EIVLTQSPATLSLSPGERATLSCRASQSLSRNKLAWYQQKPGQPPRLLIHWASTRESGVPDRFSGSGSGTDFTLTISSLQAEDVAVYYCQQHTQNTWTFGQGTKVEIK
# notes: VH of BC31M4: as the variable region of the heavy chain of m6 (PDB 7WN8) with A instead of T at residue 108 of HCDR3 (IMGT numbering); scFv linker; VL of BC31M4 (as the variable region of the light chain of m6, PDB 7WN8) with H38 (LCDR1, IMGT numbering) changed; also called H38K
# B5: BC31M4 (phage-scFv form) with VL H107 replaced by arginine (scFv, V domains shown)
# VH: QVQLVQSGAEVKKPGASVKVSCKASGYTFTSYGISWVRQAPGQGLEWMGWISAYNGNTNYAQKLQGRVTMTTDTSTSTAYMELRSLRSDDTAVYYCARGAVYFDYWGQGTLVTVSS
# VL: EIVLTQSPATLSLSPGERATLSCRASQSLSRNHLAWYQQKPGQPPRLLIHWASTRESGVPDRFSGSGSGTDFTLTISSLQAEDVAVYYCQQRTQNTWTFGQGTKVEIK
# notes: VH of BC31M4: as the variable region of the heavy chain of m6 (PDB 7WN8) with A instead of T at residue 108 of HCDR3 (IMGT numbering); scFv linker; VL of BC31M4 (as the variable region of the light chain of m6, PDB 7WN8) with H107 (LCDR3, IMGT numbering) changed
# B6: BC31M4 (phage-scFv form) with VL H107 replaced by lysine (scFv, V domains shown)
# VH: QVQLVQSGAEVKKPGASVKVSCKASGYTFTSYGISWVRQAPGQGLEWMGWISAYNGNTNYAQKLQGRVTMTTDTSTSTAYMELRSLRSDDTAVYYCARGAVYFDYWGQGTLVTVSS
# VL: EIVLTQSPATLSLSPGERATLSCRASQSLSRNHLAWYQQKPGQPPRLLIHWASTRESGVPDRFSGSGSGTDFTLTISSLQAEDVAVYYCQQKTQNTWTFGQGTKVEIK
# notes: VH of BC31M4: as the variable region of the heavy chain of m6 (PDB 7WN8) with A instead of T at residue 108 of HCDR3 (IMGT numbering); scFv linker; VL of BC31M4 (as the variable region of the light chain of m6, PDB 7WN8) with H107 (LCDR3, IMGT numbering) changed; also called H107K
# B7: BC31M4 (hIgG1 form) with the 38R/55R substitution (antibody, V domains shown)
# VH: QVQLVQSGAEVKKPGASVKVSCKASGYTFTSYGISWVRQAPGQGLEWMGWISAYNGNTNYAQKLQGRVTMTTDTSTSTAYMELRSLRSDDTAVYYCARGAVYFDYWGQGTLVTVSS
# VL: EIVLTQSPATLSLSPGERATLSCRASQSLSRNRLAWYQQKPGQPPRLLIRWASTRESGVPDRFSGSGSGTDFTLTISSLQAEDVAVYYCQQHTQNTWTFGQGTKVEIK
# notes: VH of BC31M4: as the variable region of the heavy chain of m6 (PDB 7WN8) with A instead of T at residue 108 of HCDR3 (IMGT numbering); constant region of the human IgG1 heavy chain (from the expression vector); VL of BC31M4 (as the variable region of the light chain of m6, PDB 7WN8) with histidine-to-arginine substitutions, IMGT numbering; constant region of the light chain from the hIgG1 …
# B8: BC31M4 (hIgG1 form) with the 55R/107R substitution (antibody, V domains shown)
# VH: QVQLVQSGAEVKKPGASVKVSCKASGYTFTSYGISWVRQAPGQGLEWMGWISAYNGNTNYAQKLQGRVTMTTDTSTSTAYMELRSLRSDDTAVYYCARGAVYFDYWGQGTLVTVSS
# VL: EIVLTQSPATLSLSPGERATLSCRASQSLSRNHLAWYQQKPGQPPRLLIRWASTRESGVPDRFSGSGSGTDFTLTISSLQAEDVAVYYCQQRTQNTWTFGQGTKVEIK
# notes: as for B7
# B9: BC31M4 (hIgG1 form) (antibody, V domains shown)
# VH: QVQLVQSGAEVKKPGASVKVSCKASGYTFTSYGISWVRQAPGQGLEWMGWISAYNGNTNYAQKLQGRVTMTTDTSTSTAYMELRSLRSDDTAVYYCARGAVYFDYWGQGTLVTVSS
# VL: EIVLTQSPATLSLSPGERATLSCRASQSLSRNHLAWYQQKPGQPPRLLIHWASTRESGVPDRFSGSGSGTDFTLTISSLQAEDVAVYYCQQHTQNTWTFGQGTKVEIK
# notes: VH of BC31M4: as the variable region of the heavy chain of m6 (BC31M5, PDB 7WN8) with alanine instead of threonine at residue 108 of HCDR3 (IMGT numbering); constant region of the human IgG1 heavy chain (from the expression vector); VL of BC31M4: as the variable region of the light chain of m6 (BC31M5, PDB 7WN8); only one amino acid (heavy chain 108) differs between the two antibodies; constant …
# B10: BC27 (hIgG1 form) (antibody, V domains shown)
# VH: QVQLVQSGAEVKKPGASVKVSCKASGYTFTSYGISWVRQAPGQGLEWMGWISAYNGNTNYAQKLQGRVTMTTDTSTSTAYMELRSLRSDDTAVYYCARGKVYFDYWGQGTLVTVSS
# VL: EIVLTQSPATLSLSPGERATLSCRASQSLSRNHLAWYQQKPGQPPRLLIHWASTRESGVPDRFSGSGSGTDFTLTISSLQAEDVAVYYCQQYYTASWTFGQGTKVEIK
# notes: VH of BC27, parent of BC31M4 and BC31M5: as the variable region of the heavy chain of m6 (PDB 7WN8) except in HCDR3; constant region of the human IgG1 heavy chain (from the expression vector); VL of BC27: as the variable region of the light chain of m6 (PDB 7WN8) except in LCDR3; constant region of the light chain from the hIgG1 light-chain vector; IgG1; Random mutations were introduced only into …
# B11: BC31M5 (hIgG1 form) (antibody, V domains shown)
# VH: QVQLVQSGAEVKKPGASVKVSCKASGYTFTSYGISWVRQAPGQGLEWMGWISAYNGNTNYAQKLQGRVTMTTDTSTSTAYMELRSLRSDDTAVYYCARGTVYFDYWGQGTLVTVSS
# VL: EIVLTQSPATLSLSPGERATLSCRASQSLSRNHLAWYQQKPGQPPRLLIHWASTRESGVPDRFSGSGSGTDFTLTISSLQAEDVAVYYCQQHTQNTWTFGQGTKVEIK
# notes: VH of BC31M5: as the variable region of the heavy chain of m6 (PDB 7WN8); constant region of the human IgG1 heavy chain (from the expression vector); VL of BC31M5: as the variable region of the light chain of m6 (PDB 7WN8); constant region of the light chain from the hIgG1 light-chain vector; IgG1
# What was measured:
# [1] = target: T1, extracellular domain of CD47 fused to a His(×6)-Avi-tag (Homo sapiens, UniProt Q08722); assay: ELISA; CD47-ECD coated on plates; serial dilutions of phage-scFvs, detected with anti-M13-HRP; pH 7.4 and pH 6.0; conditions: one partner purified
# T1 construct: CD47, extracellular domain; also called CD47-ECD
# T1 sequence (Q08722 whole entry, looked up, the tested form may be a part): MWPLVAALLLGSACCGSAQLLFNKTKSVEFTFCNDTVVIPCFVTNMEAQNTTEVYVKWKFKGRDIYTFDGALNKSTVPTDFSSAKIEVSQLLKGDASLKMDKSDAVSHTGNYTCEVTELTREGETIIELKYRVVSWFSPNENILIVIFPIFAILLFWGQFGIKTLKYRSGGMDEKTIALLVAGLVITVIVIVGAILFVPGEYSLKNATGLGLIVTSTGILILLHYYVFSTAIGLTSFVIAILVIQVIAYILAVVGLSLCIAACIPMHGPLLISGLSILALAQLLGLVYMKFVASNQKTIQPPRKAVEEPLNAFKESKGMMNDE
# [2] = target: T1, extracellular domain of CD47 fused to a …; assay: ELISA; CD47-ECD coated on plates; phage-scFv site saturation mutants of BC31M4, detected with anti-M13-HRP; pH 6.5 and pH 7.4; conditions: one partner purified
# [3] = target: T1, extracellular domain of CD47 fused to a …; assay: ELISA; CD47-ECD coated on plates; serial dilutions of BC31M4 mutants in hIgG1 form; pH 7.4 and pH 6.8; conditions: both partners purified
# [4] = target: T2, full-length human CD47 stably expressed on CHO cells (CHO-hCD47) (human, UniProt Q08722); assay: flow cytometry on cells; serially diluted antibodies (hIgG1 form) incubated with CHO-CD47 or tumor cells, detected with goat anti-human IgG-FITC; pH 6.8 and pH 7.4 separately; conditions: one partner purified
# T2 construct: full-length human CD47, stably expressed on CHO cells; also called CHO-CD47; cell-surface CD47; source: CHO cells, stably expressing, on cells
# T2 sequence (Q08722 19-323): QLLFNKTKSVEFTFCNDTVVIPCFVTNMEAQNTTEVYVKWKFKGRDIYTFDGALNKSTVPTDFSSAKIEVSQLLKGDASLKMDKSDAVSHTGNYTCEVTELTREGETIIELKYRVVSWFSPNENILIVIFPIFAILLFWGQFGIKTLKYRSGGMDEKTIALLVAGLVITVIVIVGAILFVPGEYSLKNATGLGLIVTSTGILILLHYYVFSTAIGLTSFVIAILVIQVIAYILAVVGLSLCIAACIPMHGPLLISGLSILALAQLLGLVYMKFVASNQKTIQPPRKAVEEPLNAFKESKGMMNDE
# [5] = target: T3, cell-surface CD47 on Raji, Jurkat and MDA-231 tumor cells (human (endogenous in Raji, Jurkat, …, UniProt Q08722)); assay: as above; conditions: one partner purified
# T3 construct: CD47 endogenous on human tumor cell lines
# T3 sequence (Q08722 19-323): as above
# [6] = target: T2, full-length human CD47 stably expressed …; assay: flow cytometry on cells; blocking assay of BC27: serially diluted antibody incubated with cells in the presence of bio-SIRPα-Fc, detected with streptavidin-FITC; pH 6.0, 6.5, 6.9 and 7.4; up to 1 µM antibody; conditions: one partner purified
# [7] = target: T1, extracellular domain of CD47 fused to a …; assay: SPR; Biacore T200, 25 °C; anti-human IgG immobilised on a CM5 chip, antibodies (hIgG1 form) captured, twofold serially diluted CD47-ECD injected; pH 6.8 buffer; 1:1 binding model; conditions: both partners purified
# [8] = target: T1, extracellular domain of CD47 fused to a …; assay: SPR; Biacore T200, 25 °C; anti-human IgG immobilised on a CM5 chip, antibodies (hIgG1 form) captured, twofold serially diluted CD47-ECD injected; pH 7.4 buffer; 1:1 binding model; conditions: both partners purified
binder,measurement,setting,value
B1,binding result,[1],binds
B2,binding result,[2],binds
B3,binding result,[2],binds
B4,binding result,[2],binds
B5,binding result,[2],binds
B6,binding result,[2],binds
B7,binding result,[3],binds
B8,binding result,[3],binds
B9,binding result,[4],binds
same,binding result,[5],binds
B10,binding result,[6],binds
B11,fold higher binding affinity than BC31M4 at pH 6.8,[7],~3 fold
same,pH-dependence (ratio of KD at pH 7.4 to KD at pH 6.8),[8],~1.9 fold
